Consider one molecule from patent publication US20260132392, “GENE EDITING SYSTEMS COMPRISING REVERSE TRANSCRIPTASES” (Metagenomi, Inc., published 2026).

This series addresses T1, Ec86 retron RT (Escherichia coli, UniProt P23070 P23070:1-320).
T1 sequence: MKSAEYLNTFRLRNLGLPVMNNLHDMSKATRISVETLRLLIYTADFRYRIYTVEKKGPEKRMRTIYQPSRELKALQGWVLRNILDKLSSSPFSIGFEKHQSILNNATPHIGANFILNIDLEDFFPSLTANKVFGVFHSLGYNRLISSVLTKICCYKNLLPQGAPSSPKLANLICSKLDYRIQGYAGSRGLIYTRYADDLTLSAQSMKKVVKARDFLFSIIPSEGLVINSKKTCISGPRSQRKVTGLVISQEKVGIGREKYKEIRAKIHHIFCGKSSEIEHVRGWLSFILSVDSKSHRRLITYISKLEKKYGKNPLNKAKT
In words: msdDNA qPCR, 37 C 2 h. Particulars: tags: N-terminal Strep tag. (In general: Quantitative PCR measures a nucleic acid by following its amplification.)

Procedure: The Ec86 RT was co-expressed with the ncRNA substrate (final 100 nM) in a cell-free expression system) supplemented with dNTPs (final 0.3 mM). Expression constructs were codon-optimized for E. coli and contained an N-terminal single Strep tag. After incubation for 2 h at 37° C., the reaction was quenched by heat denaturation at 95° C. for 2 min, followed by treatment by RNase A for 30 min at 37° C. […] The resulting reverse transcription products, herein referred to as msdDNA, were diluted prior to qPCR to ensure msdDNA concentrations were within the linear range of detection. The amount of msdDNA was quantified by extrapolating values from a standard curve generated with a DNA template of known concentrations.

B1: Ec86 wild-type ncRNA (ssRNA)
RNA: GGAUGCGCACCCUUAGCGAGAGGUUUAUCAUUAAGGUCAACCUCUGGAUGUUGUUUCGGCAUCCUGCAUUGAAUCUGAGUUACUGUCUGUUUUCCUUGUUGGAACGGAGAGCAUCGCCUGAUGCUCUCCGAGCCAACCAGGAAACCCGUUUUUUCUGACGUAAGGGUGCGCAACUUUC
On to B1, for which the binding result is reported as “binds”.
